Series [1] addresses TDP-43 (oligomer, isodesmic) NTD (Homo sapiens) (UniProt Q13148). The following applies: cited from earlier work.
The target in series [2] is TDP-43 NTD (Homo sapiens) (UniProt Q13148). The settings on record: cited from earlier work.
Series [3] deals with the molecule itself. The series is described as follows: dynamic light scattering; 0.5 mg/mL (45 uM) protein in 4.5 M urea, DH recorded every 5 s, linear fit extrapolated to 0 s (unfolding intermediate).

For orientation: Kd means the concentration at which binding is half-saturated. Take TDP-43 NTD (from UniProt Q13148): the Kd is 40 µM in series [1] and 2400 nM in series [2].

B1: TDP-43 NTD (N-terminal domain of TAR DNA-binding protein 43), noncleaved, 99 residues (domain or fragment, UniProt Q13148 1-77, looked up)
chain: MSEYIRVTEDENDEPIEIPSEDDGTVLLSTVTAQFPGACGLRYRNPVSQCMRGVRLVEGILHAPDAGWGNLVYVVNY
notes: 99 residues in all with the 22-residue N-terminal tag, 11,081.29 Da; A cleaved 78-residue variant was used only for fluorescence kinetics, not for any test of the oligomeric state; also called noncleaved TDP-43 NTD; source: purified
A word on the stoichiometry N: it is the number of molecules, sites or subunits per partner or assembly. For the molecule B1, the “stoichiometry N” value in series [3] was 2.
